Laboratory results taken from the nanobody polyreactivity screen of Harvey et al. (2022).

Experiment: yeast display, Sf9 membrane polyspecificity reagent, FACS + sequencing; frameworks hold sequencing errors
Procedure, shortened: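 After 36–48 hours of galactose induction, yeast (Saccharomyces cerevisiae BJ5465) displaying a synthetic nanobody library were stained at 4 °C for 1 hour with 10% biotinylated, detergent-solubilized Sf9 membrane reagent. Streptavidin microbeads enriched the stained cells before FACS sorting into low and high (top ~1%) gates on anti-HA and streptavidin fluorescence. Each clone's polyreactivity label reflects its gate of origin.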

In the case of “QVQLVESGGGLVQAGGSIRLSCAASGSTFSHNAMGWYRQAPGKERELVAAIRWNGGSTYYADSVKGRFTISRDNAKNTVYLQMNSLKPEDTAVYYCAKENHYFTQGYGYWGQGTQVTVSS”, the “polyreactivity (PSR sort gate)” value was “low polyreactivity”.

With “QVQLVESGGGLVQAGGSLRLSCAASGRTFRSYTRGWYRQAAGKERELVAAINRGDRTYADSVKGRFTISRDNAKNTVYLQMNSLKPEDTAVYYCAARYYGGYGKQPRARYGYWGQGTQVTVSS” the “polyreactivity (PSR sort gate)” value was “high polyreactivity”.

With “QVQLVESGGGLVQAGGSLRLSCAASGSIFDWYAMGWYRKAPGTERELVAAINEGGGSTYYADSVKGRFTISRDNAKNTVYLQMNSLKPEDTAVYYCAAGDYYLQDNYWGQGTQVTVSS” the “polyreactivity (PSR sort gate)” value was “low polyreactivity”.

For “QVQLVESGGGLVQAGGSLRLSCAASGSIFISYAKGWYRQAPGKERELVAAINYSGGSTYYADSVKGRFTISRDNAKNTVYLQMNSLKPEDTAVYYCAKRSTYRYYGYKLRDYWGQVTQVTVSS”, the “polyreactivity (PSR sort gate)” value was “low polyreactivity”.

For “QVQLVESGGGLVQAGGRLRLSCAASGRIFYLNAMGWYRQAPGKETELVAAINTSGDATYYADSEKGRFTISRDIAKNTVYLQMNSLKPEDTAVYYCAAYVIGPDQFIYDYWGQGPQVTVSS”, the “polyreactivity (PSR sort gate)” value was “low polyreactivity”.

With “QVQLVESGGGLVQAGGSLRLSCAASGRTFRYYAMGWYRQAPGKERELVAAIDTSSGSTYYADSVKGRFTISRDNAKNTVYLQMKSLKPEDTAVYYCNATWWIPLFYDYWGQGTQVTVSS” the “polyreactivity (PSR sort gate)” value was “low polyreactivity”.

In the case of “QVQLVESGGGLDQAGGSLRLSCAASGIILYRNGMGCYRQAPGKETELVAVISRRGGTYYADSVKGRFTISRDNAKNTVYLQVNSLKPEDTAVYYCAAYLSQKGNFRGGGDYWGQGTQVTVSS”, the “polyreactivity (PSR sort gate)” value was “high polyreactivity”.

In the case of “QVQLVESGGGLVQAGGSLRLSCAASGLTFKSYAMGWYRQAPGKERELVAAISWRGGRTYYADSVKGRFTISRDNAKNTVYLQMNSLKPEDTAVYYCNARSQQWWLSRYNYWGQGTQVTVSS”, the “polyreactivity (PSR sort gate)” value was “high polyreactivity”.

For “QVQLVESGGGLVQAGGSLRLSCAASGFTFVSNAMGWYRQAPGKERELVADITSDGSTNYADSVKGRFTISRDNAKNTVYLQMNSLKPEDTAVYYCATDQRSHTWVNQFDYWGQGTQVTVSS”, the “polyreactivity (PSR sort gate)” value was “low polyreactivity”.

For “QVQLVESGGGLVQAGGSLRLSCAASGFTFGWYAMGWYRQAPGKERELVAAISRRGGTTYYADSVKGRFTISRDNAKNTVYLQMNSLKPEDTAVYYCAATSYTYVLSPYRGDYWGQGTQVTVSS”, the “polyreactivity (PSR sort gate)” value was “high polyreactivity”.

For “QVQLVESGGGLVQAGGSLRLSCAASGTTFYYNAMGWYRQAPGKERELVARISRSGGSTYADSVKGRFTISRDNAKNTVYLQMNSLKPEDTAVYYCNADAYGTPEFTSYAVRYDYWGQGTQVTVSS”, the “polyreactivity (PSR sort gate)” value was “low polyreactivity”.

For “QVQLVESGGGLVQAGGSLRLSCAASGRIFGRYVMGWYRQAPGKERELVAVITGGGTRTYYADSVKGRFTISRDNAKNTVYLQMNSLKPEDTAVYYCAAPYRPDVDYWGQGTQVTVSS”, the “polyreactivity (PSR sort gate)” value was “high polyreactivity”.

In the case of “QVQLVESGGGIVQAGGSLRLSCAASGSTFILNAMGWYRQAPGKERALVATISSSDTSTYYADSVKGRFTISRDNAKNTVYLQMNSLKPEDTAVYYCNADDYTTSYLQRVYHYGVEYYYWGQGTQVTVSS”, the “polyreactivity (PSR sort gate)” value was “low polyreactivity”.

With “QVQLVESGGGLVQAGGSLRLSCAASGSIFKQNAMGWYRQAPGKERELVASIRASGDRTYYADSVKGRFTISRDNAKNTVYLQMNSLKPEDTAVYYCAARRVRTRGYNYWGQGTQVTVSS” the “polyreactivity (PSR sort gate)” value was “high polyreactivity”.

In the case of “QVQLVESGGGLVQAGGSLRLSCAASGRIFTGYVMGWYRQAPGKERELVAAITYTGGSTFYADSVKGRFTISRDNAKNTVYLQMNSLKPEDTAVYYCAADESPYFLDIVTYYEFDYWGQGTQVTVSS”, the “polyreactivity (PSR sort gate)” value was “low polyreactivity”.

In the case of “QVLRVDSGGGLVQAGGSLRLSCAASGSIFGFYARGWDRQAPGTERELVAAITFSGGSTDYTDSVKGRFTISSDNAKNTVYLQMNSLKTEDTSVYYCADRGYAIYSYWYYEPYDYWGQGTQVTVSS”, the “polyreactivity (PSR sort gate)” value was “high polyreactivity”.

For “QVQLVESGGGIVQAGGSLRLSCAASGRTFQPYAMGWYRQAPGKERELVAAITSIGGSTFYADSVKGRFTISRDNAKNTVYLQMNSLKPEDTAVYYCARRGYYRSKWERDYWGQGTQVTVSS”, the “polyreactivity (PSR sort gate)” value was “low polyreactivity”.

With “QDQLVESGGGLDQARGSLRLSCAACGSTFPRYAMGWSRQAPGKERELVAAITASGGSTYYADSVKGRFTISRDNAKNPVYLQMNSLKPEDTAVYYCATPSLYTGYDYWGQGTQVTVSS” the “polyreactivity (PSR sort gate)” value was “low polyreactivity”.

In the case of “QVQLVESGGGLVQAGGSLRLSCAASGRIFPGYTMGWYRQAPGKERELVAGISRSGGRTYYADSVKGRFTISRDNAKNTVYLQMNSLKPEDTAVYYCADDGYPGRRYTGMDYWGQGTQVTVSS”, the “polyreactivity (PSR sort gate)” value was “high polyreactivity”.

For “QVQLVESGGGLDQAGGSLRLSCAASGSIFRSYAMGWYRQAPGKERELVATIDRSGGSTYYADSVKGRFTISRDNAKNTVYLQMNSLKPEDTAVYYCNKTPHFPRPGFNYWGQGTQVTVSS”, the “polyreactivity (PSR sort gate)” value was “low polyreactivity”.

In the case of “QVQLVESGGGLFHAGGSLRLSCAASGSTFTDDDMGWYRQAPGKERELVAAMSWSGGSTYYADSVKGRFTISRDNAKNTVYLQMNSLKPDDTADYYCAFRYHGYDYWGQGTQVTVSS”, the “polyreactivity (PSR sort gate)” value was “high polyreactivity”.

In the case of “QVQLVESGGGLVQAGGSLRLSCAASGSIFDLYAMGWYRQAPGKERELVAAINWTGGSTYYADSVKGRFTISRDNAKNTVYLQMNSLKPEDTAVYYCAASYYYGTEHYDYWGQGTQVTVSS”, the “polyreactivity (PSR sort gate)” value was “low polyreactivity”.

With “QVQLVESGGGLVQAGGSLRLSCAASGSTFYVNAMGWYRQAPGKERELVAAIRYSGGRTYYADSVKGRFTISRDNAKNTVYLQMNSLKPEDTAVYYCAATTYYGGLYTREFDYWGQGTQVTVSS” the “polyreactivity (PSR sort gate)” value was “low polyreactivity”.

For “QVQLVESGGGLVQAGGSLRLSCAASGRTFAPNTMGWYRQAPGKERELVATISSGGSTNYADSVKGRFTISRDNAKNTVYLQMNSLKPEDTAVYYCAARYRIVYRSHWGFTSYDYWGQGTQVTVSS”, the “polyreactivity (PSR sort gate)” value was “low polyreactivity”.

With “QVQLVESGGCLVQAGGSLRLSCAASGSIFGGNAMGWSRQAPGKEREFVAAITVSDGSTYYADSVKGRFTISRDNAKKTVYLQMNSLKPEDTAVYYCAAGGFYYPHYDYWGQGTQVTVSS” the “polyreactivity (PSR sort gate)” value was “low polyreactivity”.

With “QVQLVESGGGLVQAGGSLRLSCPASGRTFRWYAMGWYRQAPGKERELVAAISQSGGSTYYAVSVKGRFTISRDNAKNTVYLQMNSLKPEDTAVYYFNAYPPYGGYAYGRGDYWGQGTQVTVSS” the “polyreactivity (PSR sort gate)” value was “high polyreactivity”.

For “QVQLVESGGGLVQAGGSLRLSCAASGSIVWYNAMGWYRPAPGKERELVAAITWSGGSTYYADSVKGRFTISRDNAKNTVYLQMNSLKPEDTAVYYCAADVKRDRVWGGDYWGQGTQVTVSS”, the “polyreactivity (PSR sort gate)” value was “low polyreactivity”.

For “QVQLVESGGGLVQAGGSLRLSCAASGSIFVWNAMGWYRQAPGKERELVAAITNIGGRTYYADSVKGRFTISRDNAKNTFYLQMNSLKPEDTAVYYCNVVVKGAWDYYPYDYWGQGTQVTVSS”, the “polyreactivity (PSR sort gate)” value was “high polyreactivity”.

With “QVQLVESGGGLLQAGGSLLLSCAASGSNFAYYAMGWYRQAPGKERELVAAITRGAGRTFYADSVKGRFTISRDNAKNTVYLQMNSLKQEDTAVYYCAADVSGSKYDYWGQGTQVTVSS” the “polyreactivity (PSR sort gate)” value was “high polyreactivity”.

With “QVQLVESGGGLVQAGGSLRLSCAASGFIFRRNTMGWYRQAPGKERELVAVITWSGGRTYYADSVKGRFTISRDNAKNTVYLQMNSLKPEDTAVYDCTAEQWWSLDYWGQGTQVTVSS” the “polyreactivity (PSR sort gate)” value was “low polyreactivity”.

For “QVQLVESGGGLVQAGGSLRLSCAASGRIFGYYVMGWYRQAPGKERELVATISSGGSTYYADSVKGRFTISRDNAKNTVYLQMNSLKPEDTAVYYCNTDRYHRVDFEYWGQGTQVTVSS”, the “polyreactivity (PSR sort gate)” value was “high polyreactivity”.

With “QVQLVESGGGLVQAGGSLRLSCAASVSTFPGYAMGWYRQAPGKERELVAAISTSGGRTYYADSVKGRFTISRDNAKNTVYLQMNSLKPEDTAVYYCAARDTRSPYSGTQVEYWGQGTQVTVSS” the “polyreactivity (PSR sort gate)” value was “low polyreactivity”.

For “QVQLVESGGGLVQAGGSLRLSCAASGYTFKRNDMGWYRQAPGKERELVAAISKSGGSTYYADSVKGRFTISRDNAKNTVYLQMNSLKPEDTAVYYCPGPLPYYGQYDYWGQGTQVTVSS”, the “polyreactivity (PSR sort gate)” value was “low polyreactivity”.

With “QVQLVESGGGLVQAGGSHRLSCAASGRTFRINAMGWYRQAPGKERELVAAISRSGGSTYYADSVKGRFTISRDNAKNTVYLQMTSVKPEDTAVYYCAARPYYTWRYLPTKSGDYWGQGTLVTVSS” the “polyreactivity (PSR sort gate)” value was “low polyreactivity”.

For “QVQLVESGGGLVQAGGSLRLSCAASGRTFQKNTMGWYRQAPGKERELVAAIDYSATTTYYADSVKGRFTISRDNAKNTVYLQMNSLKTEDTAVYYCAARWSYPRWEFDYWGQGTQVTVSS”, the “polyreactivity (PSR sort gate)” value was “high polyreactivity”.

In the case of “QVQLVESGGGLVHAGGSLRLSCAASGFIFTKNAMGWYRQAPGKDRELVAAITSSGGNTYYADSVKGRFTISRDNAKNTVYLQMNSLKPEDTAVYYCAASRFLRMYWGQGTQVTVSS”, the “polyreactivity (PSR sort gate)” value was “high polyreactivity”.

For “HVQLVESGGGLVQAGGSLRLSCAASGFTFPIYTMGWYRQAPGKESELVAAISASGGRTYYADSVKGRFTISRDNAKNTVYFQMNSLNPEDTSVYFCAADGYRAPGNAYYYWGQGTQVTVSS”, the “polyreactivity (PSR sort gate)” value was “high polyreactivity”.

With “QVQLVESGGGLVQAGGRLRLSCAASGRTFPWNVMGWYRQAPGKERELVAAISWSSGRTYYADSVKGRFTISRDNAKNTVYLQMNSLKPDDTAVYYCAKRYRPYRGNSGNDYWGQGTQVTVSS” the “polyreactivity (PSR sort gate)” value was “high polyreactivity”.

For “QVQLVESGGGLVQAGGSLRLSCAASGRIFRHNAMGWYRQAPGKERELVAAISGGGTTYYADSVKGRFTISRDNAKNTVYLQMNSVKPEDTAVYYCAARRRGSVGVGYAYPYNYWGQGTQVTVSS”, the “polyreactivity (PSR sort gate)” value was “high polyreactivity”.

With “QVQLVESGGGLVQAGGSLRLSCAASGRTLARNAMGWDRQAPGKEWELVASINGRTTRTYYADSVKGRFTISRDNANNTVYLQRNSLKPEDTAVYYCAADPPGYVYGKRYYWGQGTQVTVSS” the “polyreactivity (PSR sort gate)” value was “high polyreactivity”.

In the case of “QVQLVESGGGLVQAGGSLRLSCAASGRIFHYYAMGWYRQAPGKERELVAAINKSGGRTYYADSVKGRFTISRDNAKNTVYLQMNSLKPEDTAVYYCAADVPGVTTSYAPYDSDYWGQGTQVTVSS”, the “polyreactivity (PSR sort gate)” value was “high polyreactivity”.

For “QVQLVESGGGLVQAGGSLRLSCAASGRIPAYAMGWYRQAPWKERELVAAITWSGGSTYYADSVKGRFTISRDNAKNTVYLQMISLKPEDTSVDYCAAKQWGRYGYWGKGTQVTVSS”, the “polyreactivity (PSR sort gate)” value was “high polyreactivity”.

In the case of “QVQLQESGGGLVQAGGSLRLSCAVSGTIFFPQDKGWYRQAPGREREYGAAIAEGTSTYYADSVKGRFTISRDNAKNTVYPQMYSLKPEDTEVNYCAAYRSTPQQFLYWGQGTQVTVSS”, the “polyreactivity (PSR sort gate)” value was “high polyreactivity”.
